According to patent publication US20260070987A1:

Biological target: equine FcRn (large alpha subunit p51) / equine beta-2-microglobulin complex, biotinylated (equine) (UniProt P30441)
Assay: SPR (Biacore), pH 6

UniProt P30441, sequence (P30441 21-118, one chain of several): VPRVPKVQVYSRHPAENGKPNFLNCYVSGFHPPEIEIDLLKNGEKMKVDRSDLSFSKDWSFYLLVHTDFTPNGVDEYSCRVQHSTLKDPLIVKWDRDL

| Binder | Kd [nM] |
| --- | --- |
| equine IgG4 K311D (antibody, part only; not given: variable domains, not shown: another chain or arm of the molecule; small tags and cut ends) constant: ASTTAPKVFPLASHSAATSGSTVALGCLVSSYFPEPVTVSWNSGALTSGVHTFPSVLQSSGLYSLSSMVTVPASSLKSQTYICNVAHPASSTKVDKKIVIKECNGGCPAECLQVGPSVFIFPPKPKDVLMISRTPTVTCVVVDVGHDFPDVQFNWYVDGVETHTATTEPKQEQFNSTYRVVSVLPIQHDDWLSGKEFKCKVNNKALPAPVERTISKPTGQPREPQVYVLAPHRDELSKNKVSVTCLVKDFYPTDIDIEWKSNGQPEPETKYSTTPAQLDSDGSYFLYSKLTVETNRWQQGTTFTCAVMHEALHNHYTEKSVSKSPGK | 64.3 |
| equine IgG4 K311E (antibody, part only; not given: variable domains, not shown: another chain or arm of the molecule; small tags and cut ends) constant: ASTTAPKVFPLASHSAATSGSTVALGCLVSSYFPEPVTVSWNSGALTSGVHTFPSVLQSSGLYSLSSMVTVPASSLKSQTYICNVAHPASSTKVDKKIVIKECNGGCPAECLQVGPSVFIFPPKPKDVLMISRTPTVTCVVVDVGHDFPDVQFNWYVDGVETHTATTEPKQEQFNSTYRVVSVLPIQHEDWLSGKEFKCKVNNKALPAPVERTISKPTGQPREPQVYVLAPHRDELSKNKVSVTCLVKDFYPTDIDIEWKSNGQPEPETKYSTTPAQLDSDGSYFLYSKLTVETNRWQQGTTFTCAVMHEALHNHYTEKSVSKSPGK | 75.2 |
| equine IgG4 K311F (antibody, part only; not given: variable domains, not shown: another chain or arm of the molecule; small tags and cut ends) constant: ASTTAPKVFPLASHSAATSGSTVALGCLVSSYFPEPVTVSWNSGALTSGVHTFPSVLQSSGLYSLSSMVTVPASSLKSQTYICNVAHPASSTKVDKKIVIKECNGGCPAECLQVGPSVFIFPPKPKDVLMISRTPTVTCVVVDVGHDFPDVQFNWYVDGVETHTATTEPKQEQFNSTYRVVSVLPIQHFDWLSGKEFKCKVNNKALPAPVERTISKPTGQPREPQVYVLAPHRDELSKNKVSVTCLVKDFYPTDIDIEWKSNGQPEPETKYSTTPAQLDSDGSYFLYSKLTVETNRWQQGTTFTCAVMHEALHNHYTEKSVSKSPGK | 41.8 |
| equine IgG4 K311G (antibody, part only; not given: variable domains, not shown: another chain or arm of the molecule; small tags and cut ends) constant: ASTTAPKVFPLASHSAATSGSTVALGCLVSSYFPEPVTVSWNSGALTSGVHTFPSVLQSSGLYSLSSMVTVPASSLKSQTYICNVAHPASSTKVDKKIVIKECNGGCPAECLQVGPSVFIFPPKPKDVLMISRTPTVTCVVVDVGHDFPDVQFNWYVDGVETHTATTEPKQEQFNSTYRVVSVLPIQHGDWLSGKEFKCKVNNKALPAPVERTISKPTGQPREPQVYVLAPHRDELSKNKVSVTCLVKDFYPTDIDIEWKSNGQPEPETKYSTTPAQLDSDGSYFLYSKLTVETNRWQQGTTFTCAVMHEALHNHYTEKSVSKSPGK | 51.2 |
| equine IgG4 K311H (antibody, part only; not given: variable domains, not shown: another chain or arm of the molecule; small tags and cut ends) constant: ASTTAPKVFPLASHSAATSGSTVALGCLVSSYFPEPVTVSWNSGALTSGVHTFPSVLQSSGLYSLSSMVTVPASSLKSQTYICNVAHPASSTKVDKKIVIKECNGGCPAECLQVGPSVFIFPPKPKDVLMISRTPTVTCVVVDVGHDFPDVQFNWYVDGVETHTATTEPKQEQFNSTYRVVSVLPIQHHDWLSGKEFKCKVNNKALPAPVERTISKPTGQPREPQVYVLAPHRDELSKNKVSVTCLVKDFYPTDIDIEWKSNGQPEPETKYSTTPAQLDSDGSYFLYSKLTVETNRWQQGTTFTCAVMHEALHNHYTEKSVSKSPGK | 35.6 |
| equine IgG1 T286H (antibody, part only; not given: variable domains, not shown: another chain or arm of the molecule) constant: ASTTAPKVFALAPGCGTTSDSTVALGCLVSGYFPEPVKVSWNSGSLTSGVHTFPSVLQSSGFYSLSSMVTVPASTWTSETYICNVVHAASNFKVDKRIEPIPDNHQKVCDMSKCPKCPAPELLGGPSVFIFPPNPKDTLMITRTPEVTCVVVDVSQENPDVKFNWYMDGVEVRHATTRPKEEQFNSTYRVVSVLRIQHQDWLSGKEFKCKVNNQALPQPIERTITKTKGRSQEPQVYVLAPHPDELSKSKVSVTCLVKDFYPPEINIEWQSNGQPELETKYSTTQAQQDSDGSYFLYSKLSVDRNRWQQGTTFTCGVMHEALHNHYTQKNVSKNPGK | 22.4 |
| equine IgG4 K311I (antibody, part only; not given: variable domains, not shown: another chain or arm of the molecule; small tags and cut ends) constant: ASTTAPKVFPLASHSAATSGSTVALGCLVSSYFPEPVTVSWNSGALTSGVHTFPSVLQSSGLYSLSSMVTVPASSLKSQTYICNVAHPASSTKVDKKIVIKECNGGCPAECLQVGPSVFIFPPKPKDVLMISRTPTVTCVVVDVGHDFPDVQFNWYVDGVETHTATTEPKQEQFNSTYRVVSVLPIQHIDWLSGKEFKCKVNNKALPAPVERTISKPTGQPREPQVYVLAPHRDELSKNKVSVTCLVKDFYPTDIDIEWKSNGQPEPETKYSTTPAQLDSDGSYFLYSKLTVETNRWQQGTTFTCAVMHEALHNHYTEKSVSKSPGK | 30.6 |
| equine IgG4 K311L (antibody, part only; not given: Variable domains, not shown: another chain or arm of the molecule) constant: ASTTAPKVFPLASHSAATSGSTVALGCLVSSYFPEPVTVSWNSGALTSGVHTFPSVLQSSGLYSLSSMVTVPASSLKSQTYICNVAHPASSTKVDKKIVIKECNGGCPAECLQVGPSVFIFPPKPKDVLMISRTPTVTCVVVDVGHDFPDVQFNWYVDGVETHTATTEPKQEQFNSTYRVVSVLPIQHLDWLSGKEFKCKVNNKALPAPVERTISKPTGQPREPQVYVLAPHRDELSKNKVSVTCLVKDFYPTDIDIEWKSNGQPEPETKYSTTPAQLDSDGSYFLYSKLTVETNRWQQGTTFTCAVMHEALHNHYTEKSVSKSPGK | 28 |
| equine IgG4 K311M (antibody, part only; not given: variable domains, not shown: another chain or arm of the molecule) constant: ASTTAPKVFPLASHSAATSGSTVALGCLVSSYFPEPVTVSWNSGALTSGVHTFPSVLQSSGLYSLSSMVTVPASSLKSQTYICNVAHPASSTKVDKKIVIKECNGGCPAECLQVGPSVFIFPPKPKDVLMISRTPTVTCVVVDVGHDFPDVQFNWYVDGVETHTATTEPKQEQFNSTYRVVSVLPIQHMDWLSGKEFKCKVNNKALPAPVERTISKPTGQPREPQVYVLAPHRDELSKNKVSVTCLVKDFYPTDIDIEWKSNGQPEPETKYSTTPAQLDSDGSYFLYSKLTVETNRWQQGTTFTCAVMHEALHNHYTEKSVSKSPGK | 16.4 |
| equine IgG4 K311N (antibody, part only; not given: variable domains, not shown: another chain or arm of the molecule) constant: ASTTAPKVFPLASHSAATSGSTVALGCLVSSYFPEPVTVSWNSGALTSGVHTFPSVLQSSGLYSLSSMVTVPASSLKSQTYICNVAHPASSTKVDKKIVIKECNGGCPAECLQVGPSVFIFPPKPKDVLMISRTPTVTCVVVDVGHDFPDVQFNWYVDGVETHTATTEPKQEQFNSTYRVVSVLPIQHNDWLSGKEFKCKVNNKALPAPVERTISKPTGQPREPQVYVLAPHRDELSKNKVSVTCLVKDFYPTDIDIEWKSNGQPEPETKYSTTPAQLDSDGSYFLYSKLTVETNRWQQGTTFTCAVMHEALHNHYTEKSVSKSPGK | 41.1 |
| equine IgG4 K311P (antibody, part only; not given: Variable domains, not shown: another chain or arm of the molecule) constant: ASTTAPKVFPLASHSAATSGSTVALGCLVSSYFPEPVTVSWNSGALTSGVHTFPSVLQSSGLYSLSSMVTVPASSLKSQTYICNVAHPASSTKVDKKIVIKECNGGCPAECLQVGPSVFIFPPKPKDVLMISRTPTVTCVVVDVGHDFPDVQFNWYVDGVETHTATTEPKQEQFNSTYRVVSVLPIQHPDWLSGKEFKCKVNNKALPAPVERTISKPTGQPREPQVYVLAPHRDELSKNKVSVTCLVKDFYPTDIDIEWKSNGQPEPETKYSTTPAQLDSDGSYFLYSKLTVETNRWQQGTTFTCAVMHEALHNHYTEKSVSKSPGK | 2000 |
| equine IgG4 K311Q (antibody, part only; not given: variable domains, not shown: another chain or arm of the molecule) constant: ASTTAPKVFPLASHSAATSGSTVALGCLVSSYFPEPVTVSWNSGALTSGVHTFPSVLQSSGLYSLSSMVTVPASSLKSQTYICNVAHPASSTKVDKKIVIKECNGGCPAECLQVGPSVFIFPPKPKDVLMISRTPTVTCVVVDVGHDFPDVQFNWYVDGVETHTATTEPKQEQFNSTYRVVSVLPIQHQDWLSGKEFKCKVNNKALPAPVERTISKPTGQPREPQVYVLAPHRDELSKNKVSVTCLVKDFYPTDIDIEWKSNGQPEPETKYSTTPAQLDSDGSYFLYSKLTVETNRWQQGTTFTCAVMHEALHNHYTEKSVSKSPGK | 21.9 |
| equine IgG4 K311R (antibody, part only; not given: variable domains, not shown: another chain or arm of the molecule) constant: ASTTAPKVFPLASHSAATSGSTVALGCLVSSYFPEPVTVSWNSGALTSGVHTFPSVLQSSGLYSLSSMVTVPASSLKSQTYICNVAHPASSTKVDKKIVIKECNGGCPAECLQVGPSVFIFPPKPKDVLMISRTPTVTCVVVDVGHDFPDVQFNWYVDGVETHTATTEPKQEQFNSTYRVVSVLPIQHRDWLSGKEFKCKVNNKALPAPVERTISKPTGQPREPQVYVLAPHRDELSKNKVSVTCLVKDFYPTDIDIEWKSNGQPEPETKYSTTPAQLDSDGSYFLYSKLTVETNRWQQGTTFTCAVMHEALHNHYTEKSVSKSPGK | 16.1 |
| equine IgG4 K311S (antibody, part only; not given: variable domains, not shown: another chain or arm of the molecule) constant: ASTTAPKVFPLASHSAATSGSTVALGCLVSSYFPEPVTVSWNSGALTSGVHTFPSVLQSSGLYSLSSMVTVPASSLKSQTYICNVAHPASSTKVDKKIVIKECNGGCPAECLQVGPSVFIFPPKPKDVLMISRTPTVTCVVVDVGHDFPDVQFNWYVDGVETHTATTEPKQEQFNSTYRVVSVLPIQHSDWLSGKEFKCKVNNKALPAPVERTISKPTGQPREPQVYVLAPHRDELSKNKVSVTCLVKDFYPTDIDIEWKSNGQPEPETKYSTTPAQLDSDGSYFLYSKLTVETNRWQQGTTFTCAVMHEALHNHYTEKSVSKSPGK | 12.4 |
| equine IgG4 K311T (antibody, part only; not given: variable domains, not shown: another chain or arm of the molecule) constant: ASTTAPKVFPLASHSAATSGSTVALGCLVSSYFPEPVTVSWNSGALTSGVHTFPSVLQSSGLYSLSSMVTVPASSLKSQTYICNVAHPASSTKVDKKIVIKECNGGCPAECLQVGPSVFIFPPKPKDVLMISRTPTVTCVVVDVGHDFPDVQFNWYVDGVETHTATTEPKQEQFNSTYRVVSVLPIQHTDWLSGKEFKCKVNNKALPAPVERTISKPTGQPREPQVYVLAPHRDELSKNKVSVTCLVKDFYPTDIDIEWKSNGQPEPETKYSTTPAQLDSDGSYFLYSKLTVETNRWQQGTTFTCAVMHEALHNHYTEKSVSKSPGK | 25.5 |
| equine IgG4 K311V (antibody, part only; not given: variable domains, not shown: another chain or arm of the molecule) constant: ASTTAPKVFPLASHSAATSGSTVALGCLVSSYFPEPVTVSWNSGALTSGVHTFPSVLQSSGLYSLSSMVTVPASSLKSQTYICNVAHPASSTKVDKKIVIKECNGGCPAECLQVGPSVFIFPPKPKDVLMISRTPTVTCVVVDVGHDFPDVQFNWYVDGVETHTATTEPKQEQFNSTYRVVSVLPIQHVDWLSGKEFKCKVNNKALPAPVERTISKPTGQPREPQVYVLAPHRDELSKNKVSVTCLVKDFYPTDIDIEWKSNGQPEPETKYSTTPAQLDSDGSYFLYSKLTVETNRWQQGTTFTCAVMHEALHNHYTEKSVSKSPGK | 22.4 |
